# Data reported in patent US20260167699A1 (Chugai, published 2026).
# How the values were obtained:
# Assay in all cases: SPR, relative to GpH7-A5/GpH7-B3/GpL16-k0 =100
# FcγRIIb = target: T1, FcγRIIb (human, UniProt P31994 43-217)
# T1 construct: extracellular domain; also called 2b
# T1 sequence: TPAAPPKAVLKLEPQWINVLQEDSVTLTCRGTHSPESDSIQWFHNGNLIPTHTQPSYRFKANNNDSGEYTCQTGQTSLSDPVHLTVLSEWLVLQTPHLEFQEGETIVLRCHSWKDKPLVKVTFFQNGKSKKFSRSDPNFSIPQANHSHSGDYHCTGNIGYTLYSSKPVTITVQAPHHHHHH
# FcγRIa = target: T2, FcγRIa (human, UniProt P12314 16-292)
# T2 construct: extracellular domain; also called 1a
# T2 sequence (P12314 other isoform, or with tags, fused parts or gaps): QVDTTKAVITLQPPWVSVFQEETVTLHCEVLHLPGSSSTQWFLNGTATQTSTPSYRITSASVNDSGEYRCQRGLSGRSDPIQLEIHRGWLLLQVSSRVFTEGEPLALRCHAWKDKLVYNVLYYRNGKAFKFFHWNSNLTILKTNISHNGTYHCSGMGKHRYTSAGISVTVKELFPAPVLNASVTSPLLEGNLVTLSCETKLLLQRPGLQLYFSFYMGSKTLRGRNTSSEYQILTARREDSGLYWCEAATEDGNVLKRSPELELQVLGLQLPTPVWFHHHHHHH
# FcγRIIa(R) = target: T3, FcγRIIa(R) (human, UniProt P12318 34-217)
# T3 construct: extracellular domain; also called 2aR
# T3 sequence: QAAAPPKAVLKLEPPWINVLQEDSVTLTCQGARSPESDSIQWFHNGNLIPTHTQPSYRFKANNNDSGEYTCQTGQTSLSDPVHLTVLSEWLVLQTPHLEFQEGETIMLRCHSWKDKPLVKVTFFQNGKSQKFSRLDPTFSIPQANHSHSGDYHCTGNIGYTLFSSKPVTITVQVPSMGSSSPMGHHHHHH
# FcγRIIa(H) = target: T4, FcγRIIa(H) (human, UniProt P12318 34-217)
# T4 construct: extracellular domain; also called 2aH
# T4 sequence: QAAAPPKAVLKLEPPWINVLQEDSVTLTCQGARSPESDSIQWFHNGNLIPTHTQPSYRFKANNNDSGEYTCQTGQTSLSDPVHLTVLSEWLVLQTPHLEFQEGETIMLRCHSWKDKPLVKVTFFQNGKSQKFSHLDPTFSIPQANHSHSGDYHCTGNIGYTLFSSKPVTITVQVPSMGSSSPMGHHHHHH
Binder,He/Con 2b (FcγRIIb) [%],He/Con 1a (FcγRIa) [%],He/Con 2aR (FcγRIIa(R)) [%],He/Con 2aH (FcγRIIa(H)) [%]
"GpH7-A5/GpH7-B3 variant Y300_04F/GpL16-k0 (antibody, human IgG1, kappa, He Ab: heterodimerized IgG1, one H chain mutated) heavy 1: not shown heavy 2: not shown light: DIVMTQSPLSLPVTPGEPASISCQASESLVHSNRNTYLHWYLQKPGQSPQLLIYKVSNRFSGVPDRFSGSGSGTDFTLKISRVEAEDVGVYYCSQNTHVPPTFGQGTKVEIERTVAAPSVFIFPPSDEQLKSGTASVVCLLNNFYPREAKVQWKVDNALQSGNSQESVTEQDSKDSTYSLSSTLTLSKADYEKHKVYACEVTHQGLSSPVTKSFNRGEC",106,102,103,103
"GpH7-A5/GpH7-B3 variant Y300_10E/GpL16-k0 (antibody, human IgG1, kappa, He Ab: heterodimerized IgG1, one H chain mutated) heavy 1: not shown heavy 2: not shown light: DIVMTQSPLSLPVTPGEPASISCQASESLVHSNRNTYLHWYLQKPGQSPQLLIYKVSNRFSGVPDRFSGSGSGTDFTLKISRVEAEDVGVYYCSQNTHVPPTFGQGTKVEIERTVAAPSVFIFPPSDEQLKSGTASVVCLLNNFYPREAKVQWKVDNALQSGNSQESVTEQDSKDSTYSLSSTLTLSKADYEKHKVYACEVTHQGLSSPVTKSFNRGEC",175,108,127,108
"GpH7-A5/GpH7-B3 variant Y300_16H/GpL16-k0 (antibody, human IgG1, kappa, He Ab: heterodimerized IgG1, one H chain mutated) heavy 1: not shown heavy 2: not shown light: DIVMTQSPLSLPVTPGEPASISCQASESLVHSNRNTYLHWYLQKPGQSPQLLIYKVSNRFSGVPDRFSGSGSGTDFTLKISRVEAEDVGVYYCSQNTHVPPTFGQGTKVEIERTVAAPSVFIFPPSDEQLKSGTASVVCLLNNFYPREAKVQWKVDNALQSGNSQESVTEQDSKDSTYSLSSTLTLSKADYEKHKVYACEVTHQGLSSPVTKSFNRGEC",114,105,103,105
"GpH7-A5/GpH7-B3 variant Y300_08L/GpL16-k0 (antibody, human IgG1, kappa, He Ab: heterodimerized IgG1, one H chain mutated) heavy 1: not shown heavy 2: not shown light: DIVMTQSPLSLPVTPGEPASISCQASESLVHSNRNTYLHWYLQKPGQSPQLLIYKVSNRFSGVPDRFSGSGSGTDFTLKISRVEAEDVGVYYCSQNTHVPPTFGQGTKVEIERTVAAPSVFIFPPSDEQLKSGTASVVCLLNNFYPREAKVQWKVDNALQSGNSQESVTEQDSKDSTYSLSSTLTLSKADYEKHKVYACEVTHQGLSSPVTKSFNRGEC",96.1,107,96.9,120
"GpH7-A5/GpH7-B3 variant Y300_20W/GpL16-k0 (antibody, human IgG1, kappa, He Ab: heterodimerized IgG1, one H chain mutated) heavy 1: not shown heavy 2: not shown light: DIVMTQSPLSLPVTPGEPASISCQASESLVHSNRNTYLHWYLQKPGQSPQLLIYKVSNRFSGVPDRFSGSGSGTDFTLKISRVEAEDVGVYYCSQNTHVPPTFGQGTKVEIERTVAAPSVFIFPPSDEQLKSGTASVVCLLNNFYPREAKVQWKVDNALQSGNSQESVTEQDSKDSTYSLSSTLTLSKADYEKHKVYACEVTHQGLSSPVTKSFNRGEC",110,106,104,103
"GpH7-A5/GpH7-B3 variant Y300_14T/GpL16-k0 (antibody, human IgG1, kappa, He Ab: heterodimerized IgG1, one H chain mutated) heavy 1: not shown heavy 2: not shown light: DIVMTQSPLSLPVTPGEPASISCQASESLVHSNRNTYLHWYLQKPGQSPQLLIYKVSNRFSGVPDRFSGSGSGTDFTLKISRVEAEDVGVYYCSQNTHVPPTFGQGTKVEIERTVAAPSVFIFPPSDEQLKSGTASVVCLLNNFYPREAKVQWKVDNALQSGNSQESVTEQDSKDSTYSLSSTLTLSKADYEKHKVYACEVTHQGLSSPVTKSFNRGEC",72.7,105,78.6,104
"GpH7-A5/GpH7-B3 variant Y300_07I/GpL16-k0 (antibody, human IgG1, kappa, He Ab: heterodimerized IgG1, one H chain mutated) heavy 1: not shown heavy 2: not shown light: DIVMTQSPLSLPVTPGEPASISCQASESLVHSNRNTYLHWYLQKPGQSPQLLIYKVSNRFSGVPDRFSGSGSGTDFTLKISRVEAEDVGVYYCSQNTHVPPTFGQGTKVEIERTVAAPSVFIFPPSDEQLKSGTASVVCLLNNFYPREAKVQWKVDNALQSGNSQESVTEQDSKDSTYSLSSTLTLSKADYEKHKVYACEVTHQGLSSPVTKSFNRGEC",97.4,102,90.9,120
"GpH7-A5/GpH7-B3 variant Y300_13S/GpL16-k0 (antibody, human IgG1, kappa, He Ab: heterodimerized IgG1, one H chain mutated) heavy 1: not shown heavy 2: not shown light: DIVMTQSPLSLPVTPGEPASISCQASESLVHSNRNTYLHWYLQKPGQSPQLLIYKVSNRFSGVPDRFSGSGSGTDFTLKISRVEAEDVGVYYCSQNTHVPPTFGQGTKVEIERTVAAPSVFIFPPSDEQLKSGTASVVCLLNNFYPREAKVQWKVDNALQSGNSQESVTEQDSKDSTYSLSSTLTLSKADYEKHKVYACEVTHQGLSSPVTKSFNRGEC",70.4,105,72.4,97.8
"GpH7-A5/GpH7-B3 variant Y300_09D/GpL16-k0 (antibody, human IgG1, kappa, He Ab: heterodimerized IgG1, one H chain mutated) heavy 1: not shown heavy 2: not shown light: DIVMTQSPLSLPVTPGEPASISCQASESLVHSNRNTYLHWYLQKPGQSPQLLIYKVSNRFSGVPDRFSGSGSGTDFTLKISRVEAEDVGVYYCSQNTHVPPTFGQGTKVEIERTVAAPSVFIFPPSDEQLKSGTASVVCLLNNFYPREAKVQWKVDNALQSGNSQESVTEQDSKDSTYSLSSTLTLSKADYEKHKVYACEVTHQGLSSPVTKSFNRGEC",122,106,105,101
"GpH7-A5/GpH7-B3 variant Y300_06M/GpL16-k0 (antibody, human IgG1, kappa, He Ab: heterodimerized IgG1, one H chain mutated) heavy 1: not shown heavy 2: not shown light: DIVMTQSPLSLPVTPGEPASISCQASESLVHSNRNTYLHWYLQKPGQSPQLLIYKVSNRFSGVPDRFSGSGSGTDFTLKISRVEAEDVGVYYCSQNTHVPPTFGQGTKVEIERTVAAPSVFIFPPSDEQLKSGTASVVCLLNNFYPREAKVQWKVDNALQSGNSQESVTEQDSKDSTYSLSSTLTLSKADYEKHKVYACEVTHQGLSSPVTKSFNRGEC",110,106,105,116
"GpH7-A5/GpH7-B3 variant Y300_19Q/GpL16-k0 (antibody, human IgG1, kappa, He Ab: heterodimerized IgG1, one H chain mutated) heavy 1: not shown heavy 2: not shown light: DIVMTQSPLSLPVTPGEPASISCQASESLVHSNRNTYLHWYLQKPGQSPQLLIYKVSNRFSGVPDRFSGSGSGTDFTLKISRVEAEDVGVYYCSQNTHVPPTFGQGTKVEIERTVAAPSVFIFPPSDEQLKSGTASVVCLLNNFYPREAKVQWKVDNALQSGNSQESVTEQDSKDSTYSLSSTLTLSKADYEKHKVYACEVTHQGLSSPVTKSFNRGEC",142,106,119,107
"GpH7-A5/GpH7-B3 variant Y300_18N/GpL16-k0 (antibody, human IgG1, kappa, He Ab: heterodimerized IgG1, one H chain mutated) heavy 1: not shown heavy 2: not shown light: DIVMTQSPLSLPVTPGEPASISCQASESLVHSNRNTYLHWYLQKPGQSPQLLIYKVSNRFSGVPDRFSGSGSGTDFTLKISRVEAEDVGVYYCSQNTHVPPTFGQGTKVEIERTVAAPSVFIFPPSDEQLKSGTASVVCLLNNFYPREAKVQWKVDNALQSGNSQESVTEQDSKDSTYSLSSTLTLSKADYEKHKVYACEVTHQGLSSPVTKSFNRGEC",92.7,101,96.2,101
"GpH7-A5/GpH7-B3 variant Y300_11K/GpL16-k0 (antibody, human IgG1, kappa, He Ab: heterodimerized IgG1, one H chain mutated) heavy 1: not shown heavy 2: not shown light: DIVMTQSPLSLPVTPGEPASISCQASESLVHSNRNTYLHWYLQKPGQSPQLLIYKVSNRFSGVPDRFSGSGSGTDFTLKISRVEAEDVGVYYCSQNTHVPPTFGQGTKVEIERTVAAPSVFIFPPSDEQLKSGTASVVCLLNNFYPREAKVQWKVDNALQSGNSQESVTEQDSKDSTYSLSSTLTLSKADYEKHKVYACEVTHQGLSSPVTKSFNRGEC",67.4,101,73.1,74.2
